The source of these data is paper PMC3666333 (Nature communications, 2013).

This series deals with the molecule itself. The experiment in a line: SAXS titration.

B1: Gp4D (residues 241-566, 36-kDa), minimal fragment of the T7 gene 4 helicase that forms hexameric rings (domain or fragment, bacteriophage T7, UniProt P03692 241-566, looked up)
chain: CHLNGHDREIMEQVWNAGPWIPDGVVSALSLRERIREHLSSEESVGLLFSGCTGINDKTLGARGGEVIMVTSGSGMGKSTFVRQQALQWGTAMGKKVGLAMLEESVEETAEDLIGLHNRVRLRQSDSLKREIIENGKFDQWFDELFGNDTFHLYDSFAEAETDRLLAKLAYMRSGLGCDVIILDHISIVVSASGESDERKMIDNLMTKLKGFAKSTGVVLVVICHLKNPDKGKAHEEGRPVSITDLRGSGALRQLSDTIIALERNQQGDMPNLVLVRILKCRFTGDTGIAGYMEYNKETGWLEPSSYSGEEESHSESTDWSNDTDF
Take B1: the binding result was “binds”.
